From patent US20160347807A1, “TARGETING P53 AND ITS DNA-BINDING DOMAIN” (UNIVERSITY OF UTAH RESEARCH DOUNDATION, priority 2014, published 2016)
“Also recorded” adds a separate entry of the source.

Assays:
Type in all cases: cell-based, human
SKOV-3 cells = assay: 7-AAD assay in SKOV-3 cells
Experimental: (§1) Transfected T47D, H1373, SKOV-3 and HeLa cells were pelleted and re-suspended in 500 μL PBS (Invitrogen) containing 1 μM 7-aminoactinomycin D (7-AAD) (Invitrogen) for 30 min prior to analysis. T47D and H1373 cells were analyzed 48 h after transfection, while SKOV-3 and HeLa cells were analyzed 24 h after transfection (time points optimized empirically). Only EGFP positive cells were assayed using the FACS Canto-II (BD-BioSciences) with FACS Diva software as previously. EGFP and 7-AAD were excited at 488 nm, and detected at 507 nm and 660 nm, respectively. Independent transfections of each construct were assayed three times (n=3). The highest value (EGFP positive cells stained with 7-AAD) was set at 100%, and the lowest at 0% (relative 7-AAD) as previously.

T47D cells [1] = assay: 7-AAD assay in T47D cells; conditions: 48 h after transfection, EGFP positive cells only
Experimental: (§2) Transfected T47D, MCF-7, MDA-MB-231, HeLa and H1373 cells were pelleted and resuspended in 500 μL PBS (Invitrogen) containing 1 μM 7-aminoactinomycin D (7-AAD) (Invitrogen) for 30 min prior to analysis following the recommended protocol from the manufacturer. The assay was performed 48 h after transfection for T47D, MCF-7 and H1373 and 24 h after transfection for MDA-MB-231 and HeLa. Only EGFP positive cells were analyzed by using the FACS Canto-II (BD-BioSciences) with FACS Diva software. EGFP and 7-AAD were excited with the 488 nm laser, and were detected at 507 nm and 660 nm, respectively. Independent transfections of each construct were tested three times (n=3).
as §1

HeLa cells = assay: 7-AAD assay in HeLa cells; conditions: 24 h after transfection
Experimental: as §2, §1

H1373 cells = assay: 7-AAD assay in H1373 cells; conditions: H1373 (p53 null), 48 h after transfection
Experimental: as §2, §1

T47D cells [2] = assay: Annexin V assay in T47D cells; conditions: 48 h after transfection
Experimental: 48 h after transfection, T47D cells were pelleted and resuspended in 400 μL of annexin-V binding buffer (Invitrogen) and incubated with 5 μL of annexin-APC (annexin-V conjugated to allophycocyanin, Invitrogen) for 15 min as before. Only transfected cells were analyzed as mentioned in 7-AAD assay. EGFP and APC were excited at 488 nm and 635 nm wavelengths, respectively and detected at their corresponding 507 nm and 660 nm wavelengths. Independent transfections of each construct were tested three times (n=3).

T47D cells [3] = assay: Rescue experiment using BFP-Bcl-XL (7-AAD) in T47D cells; conditions: 48 h after transfection, Bcl-XL overexpression
Experimental: T47D cells were co-transfected with 1 pmol of EGFP constructs and 1 pmol of BFP-Bcl-XL (BFP tag is necessary for gating Bcl-XL transfected cells). 48 h after transfection the 7-AAD assay was performed as described above. FACSCanto-II (BD-BioSciences) and FACSDiva software were used for EGFP and BFP gating. Excitation was set at 488 nm, and detected at 507 nm and 660 nm for EGFP and 7-AAD, respectively. BFP was excited at 405 nm and detected at 457 nm. Independent transfections of each construct were tested three times (n=3).

T47D cells [4] = assay: TUNEL assay in T47D cells; conditions: 48 h after transfection
Experimental: T47D cells were harvested 48 h after transfection. In situ Death Detection Kit, TMR red (Roche, Mannheim, Germany) was used following manufacturer's recommendations as before. Cells were resuspended in PBS (Invitrogen) and analyzed via the FACSAria-II (BD-Biosciences, University of Utah Core Facility). EGFP and TMR red were excited at 488 nm and 563 nm, respectively, and FACSDiva software was used to analyze the data. Independent transfections of each construct were tested three times (n=3).

DBD-BakMTS: DBD of p53 cloned between EGFP and Bak MTS
7-AAD positive cells (late apoptosis) (SKOV-3 cells; SKOV-3 (p53 null), 24 h after transfection): significantly higher than their negative control E-BakMTS; also recorded: trending higher; also recorded: induces late stage apoptosis | apoptosis in SKOV-3 (assay not stated at place) (SKOV-3 cells; ovarian cancer cells SKOV-3): triggers apoptosis | 7-AAD positive cells (late apoptosis) (T47D cells [1]): significantly higher apoptosis compared to cells transfected with MTS negative controls; also recorded: trending higher; also recorded: induces robust apoptosis, similar to, or greater than wt p53 with MTS; also recorded: outperformed DBD-BaxMTS; also recorded: induces apoptosis in all 3 cell lines | 7-AAD positive cells (late apoptosis) (HeLa cells): significant from their corresponding negative controls; also recorded: trend of higher apoptotic activity in HeLa cells compared to p53-BakMTS; also recorded: induces robust apoptosis, similar to, or greater than wt p53 with MTS; also recorded: outperformed DBD-BaxMTS; also recorded: induces apoptosis in all 3 cell lines | 7-AAD positive cells (late apoptosis) (H1373 cells): statistically higher from their negative control E-BakMTS; also recorded: significantly higher activities compared to their positive controls; also recorded: induces robust apoptosis, similar to, or greater than wt p53 with MTS; also recorded: outperformed DBD-BaxMTS; also recorded: induces apoptosis in all 3 cell lines

p53ΔC-XL: EGFP, p53ΔC (amino acids 1-322, lacks the C-terminus) and XL MTS
7-AAD positive cells (late apoptosis) (T47D cells [1]): statistically higher than the negative control E-XL; also recorded: not statistically significant from each other

p53K120E-BakMTS: p53-BakMTS with K120E mutation
7-AAD positive cells (late apoptosis) (T47D cells [1]): not statistically significant from the negative control E-BakMTS

DBDK120E-BakMTS: DBD-BakMTS with K120E mutation
7-AAD positive cells (late apoptosis) (T47D cells [1]): not statistically significant from the negative control E-BakMTS

p53m6-BakMTS: p53-BakMTS with K120A, R248A, R273A, R280A, E285A, E287A mutations
7-AAD positive cells (late apoptosis) (T47D cells [1]): not significantly different from their negative control; also recorded: complete loss in apoptotic activity compared to their non-mutated controls

B1: PRD-XL: EGFP, proline-rich domain of p53, XL MTS (protein)
chain: APRMPEAAPPVAPAPAAPTPAAPAPAPSWPLSSSVRKGQERFNRWFLTGMTVAGVVLLGSLFSRK
modifications: left off: large carriers
notes: EGFP, proline-rich domain of p53, XL MTS
Annexin V positive cells (apoptotic potential) (T47D cells [2]): not statistically significant from the negative control | apoptotic activity (7-AAD) on cotransfection of BFP-Bcl-XL (rescue) (T47D cells [3]): not altered by Bcl-XL overexpression | 7-AAD positive cells (late apoptosis) (T47D cells [1]): not statistically significant from the negative control E-XL indicating no apoptotic activity; also recorded: statistically significantly lower than p53-XL | 7-AAD positive cells (late apoptosis) (HeLa cells): statistically significant from p53-XL | TUNEL positive cells (DNA fragmentation) (T47D cells [4]): not statistically different from the negative control; also recorded: statistically significantly lower than p53-XL

B2: DBDm6-BakMTS: DBD-BakMTS with K120A, R248A, R273A, R280A, E285A, E287A mutations (protein)
chain: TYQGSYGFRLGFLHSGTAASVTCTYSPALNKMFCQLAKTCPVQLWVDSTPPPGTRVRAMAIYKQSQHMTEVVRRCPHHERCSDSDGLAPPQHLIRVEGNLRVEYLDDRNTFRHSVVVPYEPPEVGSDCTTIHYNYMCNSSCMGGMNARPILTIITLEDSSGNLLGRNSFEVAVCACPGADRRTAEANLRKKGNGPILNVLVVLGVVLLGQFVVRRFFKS
modifications: left off: large carriers
notes: DBD-BakMTS with K120A, R248A, R273A, R280A, E285A, E287A mutations
7-AAD positive cells (late apoptosis) (T47D cells [1]): not significantly different from their negative control; also recorded: complete loss in apoptotic activity compared to their non-mutated controls

B3: TD-XL: EGFP, tetramerization domain of p53, XL MTS (protein)
chain: LDGEYFTLQIRGRERFEMFRELNEALELKDAQAGRKGQERFNRWFLTGMTVAGVVLLGSLFSRK
modifications: left off: large carriers
notes: EGFP, tetramerization domain of p53, XL MTS
Annexin V positive cells (apoptotic potential) (T47D cells [2]): not statistically significant from the negative control | apoptotic activity (7-AAD) on cotransfection of BFP-Bcl-XL (rescue) (T47D cells [3]): reduction in apoptotic potential | 7-AAD positive cells (late apoptosis) (T47D cells [1]): statistically different from the negative controls but is also significantly lower than p53-XL | TUNEL positive cells (DNA fragmentation) (T47D cells [4]): not statistically different from the negative control; also recorded: statistically significantly lower than p53-XL
